Results reported in the supplement of paper PMC7125110.
± gives the standard error. For some assays here: This sample holds only a part of the variants without activity.

B1: glmS ribozyme (parent)
chain: AUAAAAGCGCCAGAACUACAGAAAUGUAGUUGACGAGGAGGAGGUUUAUCGAAUUUUCGGCGGAUGCCUCCAAA

What was measured:
Conditions in all cases: with glucosamine-6-phosphate
[1] = variants of: B1; test: kcat; higher = faster cleavage; RNA array
How it was run: (§1)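 Tracking of barcoded ribozyme variants used a hybridised Cy3 probe at 37 °C, after in situ transcription by E. coli RNA polymerase on sequenced MiSeq chips. The flowed solution held 40 μM to 10 mM glucosamine-6-phosphate in HEPES/KCl/Mg(OAc)2 buffer, and imaging ran over ~14 h. kobs was taken from exponential decay fits of normalised per-tile medians, and kcat and KM from weighted Michaelis–Menten fits.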

[2] = variants of: B1; test: self-cleavage kobs at 40 uM GlcN6P; higher = faster cleavage; RNA array
How it was run: as §1

[3] = variants of: B1; test: self-cleavage kobs at 640 uM GlcN6P; higher = faster cleavage; RNA array
How it was run: as §1

[4] = variants of: B1; test: self-cleavage kobs at 2500 uM GlcN6P; higher = faster cleavage; RNA array
How it was run: as §1

[5] = variants of: B1; test: self-cleavage kobs at 10000 uM GlcN6P; higher = faster cleavage; RNA array
How it was run: as §1

[6] = variants of: B1; test: KM; higher = weaker cofactor use; RNA array
How it was run: as §1

[7] = variants of: B1; test: self-cleavage kobs at 160 uM GlcN6P; higher = faster cleavage; RNA array
How it was run: as §1

Variant | kcat [1] [s⁻¹] | self-cleavage kobs at 40 uM GlcN6P [2] [s⁻¹] | self-cleavage kobs at 640 uM GlcN6P [3] [s⁻¹] | self-cleavage kobs at 2500 uM GlcN6P [4] [s⁻¹] | self-cleavage kobs at 10000 uM GlcN6P [5] [s⁻¹] | KM [6] [µM] | self-cleavage kobs at 160 uM GlcN6P [7] [s⁻¹]
G13U U56C | 0.000107 ± 3.8e-05 | < 1e-05 | 9.36e-05 ± 1.9e-05 | 7.63e-05 ± 1.5e-05 | 0.000214 ± 4.4e-05 |  | 
G7A U54C | 1.94e-05 ± 3.6e-06 |  |  |  |  |  | 
U57A C67U | 0.000139 ± 3.1e-05 |  | 5.03e-05 ± 1.7e-05 | 5.36e-05 ± 9.6e-06 | 0.000108 ± 1e-05 |  | 
A14G A15G C50U C68U | 5.28e-05 ± 7.8e-06 |  | 7.36e-05 ± 2e-05 | 4.92e-05 ± 1.8e-05 | 4.76e-05 ± 1.2e-05 |  | 
A39G C50U | 0.000157 ± 2.6e-05 |  |  | 6.91e-05 ± 1.4e-05 | 0.000115 ± 2.5e-05 | 3430 ± 1200 | 
G32A G59A C68U | 1.04e-05 ± 2.4e-06 |  |  |  |  |  | 
U57G C70U | 7.01e-05 ± 1.4e-05 |  | 5.96e-05 ± 1.8e-05 | 4.91e-05 ± 8.8e-06 | 8.12e-05 ± 1.3e-05 |  | 
G32U U47C | 0.000177 ± 4.1e-05 |  |  | 4.27e-05 ± 1.2e-05 | 9.94e-05 ± 1.4e-05 | 7840 ± 3400 | 
A42U U56G | 0.000177 ± 1.9e-05 |  | 2.06e-05 ± 8.1e-06 | 7.54e-05 ± 1.2e-05 | 0.000125 ± 1.7e-05 | 3910 ± 850 | 
G40A G43C U47C C50G U65C | 2.52e-05 ± 1.1e-05 |  |  |  |  |  | 
C11A U47A | 8.3e-05 ± 1.6e-05 |  |  | 5.35e-05 ± 2.1e-05 | 6.56e-05 ± 1.8e-05 |  | 
C11G C68G | 2.12e-05 ± 7.1e-06 |  |  |  |  |  | 
G32A U55A C68A | 3.25e-05 ± 3.5e-06 |  |  |  |  |  | 
C50U C70A | 2.87e-05 ± 6.9e-06 |  | 3.61e-05 ± 1.4e-05 | 3.43e-05 ± 1.5e-05 |  |  | 
G32U G66C | 5.37e-05 ± 2.7e-06 | < 1e-05 |  |  | 3.11e-05 ± 1.2e-05 | 7240 ± 850 | 
G43A U45G | 0.0116 ± 0.0056 | 0.000563 ± 0.0001 | 0.00306 ± 0.00054 | 0.00969 ± 0.0023 | 0.00965 ± 0.0026 |  | 0.000816 ± 0.00022
A15G U31G | 0.00736 ± 0.0015 | 7.87e-05 ± 9.4e-06 | 0.0011 ± 0.00015 | 0.00262 ± 0.00033 | 0.00513 ± 0.00051 | 4370 ± 1200 | 0.000202 ± 3.2e-05
C34G A52G | < 1e-05 |  |  | < 1e-05 |  |  | 
A15C G37A | 0.000686 ± 9.5e-05 |  | 9.31e-05 ± 1.5e-05 | 0.000226 ± 3.7e-05 | 0.000471 ± 4.5e-05 | 4650 ± 1200 | 

Variant | kcat [1] [s⁻¹] | self-cleavage kobs at 40 uM GlcN6P [2] [s⁻¹] | self-cleavage kobs at 640 uM GlcN6P [3] [s⁻¹] | self-cleavage kobs at 2500 uM GlcN6P [4] [s⁻¹] | self-cleavage kobs at 10000 uM GlcN6P [5] [s⁻¹] | KM [6] [µM] | self-cleavage kobs at 160 uM GlcN6P [7] [s⁻¹]
A33U U69A | 2.24e-05 ± 3e-06 | < 1e-05 |  |  |  |  | 
G13A C58G | 0.000377 ± 8.6e-05 |  | 2.8e-05 ± 7.8e-06 | 0.000101 ± 1.7e-05 | 0.000217 ± 3.4e-05 | 7150 ± 2500 | 
U56C C70A | 1.36e-05 ± 2.7e-06 |  |  |  |  |  | 
U56G C68U | 0.00243 ± 0.00033 | 6.61e-05 ± 1.1e-05 | 0.000551 ± 9.7e-05 | 0.00206 ± 0.00046 | 0.00208 ± 0.00021 | 1660 ± 380 | 0.000217 ± 4.7e-05
G13U A42C U69G | 0.00178 ± 0.00081 | 8.5e-05 ± 2.1e-05 | 0.00028 ± 5.9e-05 | 0.000852 ± 0.00026 | 0.00141 ± 0.00021 |  | 
U31G A42U | 5.2e-05 ± 1.3e-05 |  |  | 2.29e-05 ± 1.1e-05 | 4.27e-05 ± 1.1e-05 |  | 
C16U C58A C67G | 0.000119 ± 2.4e-06 |  | 8.08e-05 ± 1.6e-05 | 0.000106 ± 2e-05 | 0.000118 ± 2.5e-05 | 283 ± 23 | 4.51e-05 ± 1.9e-05
A12U U30G | 0.0227 ± 0.0046 | 0.000931 ± 0.00012 | 0.00794 ± 0.0013 | 0.0279 ± 0.0091 | 0.0211 ± 0.0039 | 983 ± 280 | 
A14C U30C A53G | 1.63e-05 ± 3.1e-06 |  |  |  |  |  | 
A33G A64G | < 1e-05 | < 1e-05 |  |  | < 1e-05 | 484 ± 28 | 
A39G C67U | 0.00597 ± 0.0013 | 0.00033 ± 5.8e-05 | 0.00216 ± 0.00033 | 0.00338 ± 0.0007 | 0.00666 ± 0.00089 | 979 ± 370 | 0.000762 ± 0.00016
C10A G13A | < 1e-05 | < 1e-05 |  |  |  |  | < 1e-05
C67A C71A | 0.000401 ± 8.3e-05 | 4.21e-05 ± 1.2e-05 | 0.00013 ± 4.6e-05 | 0.000277 ± 4.8e-05 | 0.000361 ± 4.3e-05 |  | 
A14C A48G | < 1e-05 |  | < 1e-05 |  |  | 1040 ± 200 | 
G44C U55C | 3.25e-05 ± 2.5e-06 |  | 2.79e-05 ± 1.3e-05 |  |  |  | 
C10U C70A | 2.4e-05 ± 6e-06 |  |  | 3.1e-05 ± 1.5e-05 |  |  | 
C16G A39U | 0.00424 ± 0.00089 | 6.4e-05 ± 7.3e-06 | 0.000895 ± 0.00011 | 0.00198 ± 0.00025 | 0.00316 ± 0.00031 | 3090 ± 880 | 0.000164 ± 2.2e-05
G26U C67G | 0.000379 ± 7.2e-05 |  | 0.000245 ± 8.1e-05 | 0.000254 ± 5.2e-05 | 0.000395 ± 0.00012 | 901 ± 420 | 
G13A C50G C61G G66U | 0.000136 ± 9.6e-06 | 9.58e-05 ± 1.7e-05 | 0.000165 ± 5.4e-05 | 0.000149 ± 3.8e-05 | 0.000126 ± 2.6e-05 | 17.2 ± 6.7 | 0.000112 ± 3.4e-05
